Data taken from patent publication US20180193477A1 (Zymeworks, published 2018).
Residue numbers refer to the chain shown, from its start.

B1: v15193, humanized bispecific anti-CD3-CD19 antigen-binding construct (humanized HD37 Fab / humanized OKT3 scFv hVH1/hVL2) (bispecific antibody, human IgG1, kappa, L234A L235A)
heavy: not shown
chain: QVQLVQSGGGVVQPGRSLRLSCKASGYTFTRYTMHWVRQAPGKGLEWIGYINPSRGYTNYNQKVKGRFTISTDKSKNTAYLQMDSLRAEDTGVYFCARYYDDHYSLDYWGQGTLVTVSSVEGGSGGSGGSGGSGGVDDIQMTQSPSSLSASVGDRVTITCSASSSVSYMNWYQQKPGKAPKRLIYDTSKLASGVPSRFSGSGSGTDYTLTISSLQPEDAATYYCQQWSSNPFTFGQGTKLEIKAAEPKSSDKTHTCPPCPAPEAAGGPSVFLFPPKPKDTLMISRTPEVTCVVVSVSHEDPEVKFNWYVDGVEVHNAKTKPREEQYNSTYRVVSVLTVLHQDWLNGKEYKCKVSNKALPAPIEKTISKAKGQPREPQVYVLPPSRDELTKNQVSLLCLVKGFYPSDIAVEWESNGQPENNYLTWPPVLDSDGSFFLYSKLTVDKSRWQQGNVFSCSVMHEALHNHYTQKSLSLSPG
light: DIQLTQSPSSLSASVGDRATITCRASQSVDYEGDSYLNWYQQKPGKAPKLLIYDASNLVSGIPSRFSGSGSGTDFTLTISSVQPEDAATYYCQQSTEDPWTFGCGTKLEIKRTVAAPSVFIFPPSDEQLKSGTASVVCLLNNFYPREAKVQWKVDNALQSGNSQESVTEQDSKDSTYSLSSTLTLSKADYEKHKVYACEVTHQGLSSPVTKSFNRGEC
notes: also called variant 15193
B2: v15192, humanized bispecific anti-CD3-CD19 antigen-binding construct (humanized HD37 Fab / humanized OKT3 scFv hVH1/hVL1) (bispecific antibody, human IgG1, kappa, L234A L235A)
heavy: not shown
chain: B1 chain with L183W
light: B1 light
notes: also called variant 15192
B3: v15194, humanized bispecific anti-CD3-CD19 antigen-binding construct (humanized HD37 Fab / humanized OKT3 scFv hVH2/hVL1) (bispecific antibody, human IgG1, kappa, L234A L235A)
heavy: not shown
chain: B1 chain with K74N, L183W
light: B1 light
notes: also called variant 15194
B4: v15195, humanized bispecific anti-CD3-CD19 antigen-binding construct (humanized HD37 Fab / humanized OKT3 scFv hVH2/hVL2) (bispecific antibody, human IgG1, kappa, L234A L235A)
heavy: not shown
chain: B1 chain with K74N
light: B1 light
notes: Unconjugated construct as used in SPR and whole cell FACS; also called variant v15195

Key:
[1] = target: T1, Recombinant CD3epsilon/delta Fc fusion protein (Sino Biological) (UniProt P07766 23-126; P04234 22-105); assay: SPR, BioRad ProteOn XPR36, 25 C, anti-Fc capture chip, Equilibrium Fit model, mean of three runs
T1 construct: Bought reagent; also called recombinant CD3 fusion protein; CD3 antigen; not shown: Fc part of the bought fusion protein; not described
T1 sequence (P07766 23-126, stated change not applied, chain 1 of 2): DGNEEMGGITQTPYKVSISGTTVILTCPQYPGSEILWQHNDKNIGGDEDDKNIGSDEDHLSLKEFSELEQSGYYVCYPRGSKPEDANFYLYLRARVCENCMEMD
T1 sequence (P04234 22-105, stated change not applied, chain 2 of 2): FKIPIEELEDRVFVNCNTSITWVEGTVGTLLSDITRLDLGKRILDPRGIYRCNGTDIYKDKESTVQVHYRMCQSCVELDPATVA

[2] = target: T1, Recombinant CD3epsilon/delta Fc fusion …; assay: SPR (summary of Example 6)
[3] = target: T2, CD3 on human CD3+ Jurkat T cells (human, UniProt P07766 23-207); assay: whole cell FACS binding on Jurkat cells, apparent affinity
T2 construct: whole, on cells; CD3 is a complex of several chains on the cell; also called CD3 epsilon; CD3e
T2 sequence (P07766 23-207): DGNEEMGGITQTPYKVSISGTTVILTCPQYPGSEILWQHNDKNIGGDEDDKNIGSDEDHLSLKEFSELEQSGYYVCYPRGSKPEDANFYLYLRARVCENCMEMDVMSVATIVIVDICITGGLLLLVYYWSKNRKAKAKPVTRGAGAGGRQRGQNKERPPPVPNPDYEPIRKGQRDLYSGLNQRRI

Binder	Kd [1]	binding result [2]	Kd [3]
B1	370 nM	–	–
B2	–	binds	–
B3	349 nM	–	–
B4	427 nM	–	44.7 nM
